The domain aggregation screens of Martell et al. (2025)

Test: soluble fraction after stress (log2 fold change); higher = more stays soluble; pooled small domains, quantitative proteomics
Details: stress: pH 4
Procedure, shortened: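 Aggregation propensity is read out as the fold change in how much of each domain remains soluble after acid stress. The custom small-domain libraries were pooled, held at pH 4 and analysed with high-throughput quantitative proteomics. On the log2 scale used, higher values mean more of the domain stayed soluble.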

Row | Sequence | soluble fraction (log2)
1 | HMQSEISRIGRILKERRLQLGYTQEYAAEKAGISYSYYTKIERGQQLPSLEVAMVLSKTFSLSMDRWL | -0.599
2 | HMQSFIEELLPVVDNFERSLAVVDPSDEIKNFLKGYEMIYNQLMEVLKSQGVEVIKTEGEEFDPNFHQA | -0.776
3 | HMQSHIVPDVKSQHIAQAKALLESKQMKAVVIDSNFVKGLPAGIVLDQTPIGGARVKENRTIYLTINTL | 0.0867
4 | HMQSMEIDENEIPSIDKLSEYIEYFKRIYNALFDDKQLAITNIDVLERHFANNFNTLRFKMDE | -0.534
5 | HMQSNDAGELEAVVKGIIDANPKVVADYLAGNQKVVSFFVGQAMKATKGKANPKMVSEILGKLL | ≥ 0.43
6 | HMQSQIAQLYNPLLGYVKKRINSREDAEDLTQDIFLKLSKSNKDGVDNLKSWLYTIAKNTITDYYRKKKII | -0.0414
7 | HMQSREISYSDFVASVERGEVATVILDGENIRFKGGDNVEYVTVRPADTNVTDLLIENQVVVRAEK | -0.824
8 | HMQSTVSTHQKTLALDTAQSGIPVFPVSSTHKRPLTDHGYKDATADADAVRKIWQQFPSAFV | 0.22
9 | HMQSVKTQPLRDWLLAHFDKPYPDDEDKVRLAEASGMTRAQVGNWFINARVRTWRPMVLDLGEEIERESV | -0.521
10 | HMQTEFVISSGEQPKRLDVFLLQREPYLSRAALQRMIAAGWVRVNNHLAKSSQRIKAGDVIVFD | 0.0697
11 | HMQTFGTMIAALRKEQGMTQLELAEKMGVTDKAVSKWERDLSFPDVNSLPKLAEIFHVSVDEL | 0.216
12 | HMQTLGADLRALRKARGLTLTDMAETLGRSVGWLSQVERDLSEPSITDLRHMARTLGVSVSMLFS | -0.553
13 | HMQTLQNNLKQIRSRVGLTQGELASRAGISRQAYSTLESGNANPSTEVSLRLAEALNERIESLFFLANQ | -0.846
14 | HMQTSETVYTTDKVNVRAGADTSSDKLGSVEKGTSLTRTGTDGDWSIIDYNGTTGYIKSEYLSATAPE | 0.316
15 | HMQTTKTGTITASSLYVRSGASTSHKVLGTVSKGKTVQIKDTQDGWHKISYNGDHGWVSGKYVSTT | ≥ 0.43
16 | HMQTTVHLSPEEMVIMNALKQESPIDLPILRAQVEMSNKLWDTSMKNLSKLGQLKVEKIGEQVSVSLI | ≥ 0.43
17 | HMQVAPDLMQRLTSQGHVDEKLSDALVHARQITNFEGRRRQMQFIGKLMRKLSEESIEAVKDALNEQRM | -0.244
18 | HMQVDENNINKRIDKYLSENTEYSRSTIQKMIDNGNITVNSKPTKSSYKLELNDIITIDNNFKE | -0.0731
19 | HMQVEYTRGELIQDLEGGKIVYAGISPSRETPTGEVNFILDSGLTRTLYVTDVSEIEQLLISYDIDPEVKK | -1.63
20 | HMQVFDSNEIDEVVKKVIENNPQAVADFKKGKSNALQFLAGQVMRETKGRFNPNVVQERIRLLLT | 0.256
21 | HMQVLLTRREKEILKLIAEGLTSAEIGKRLFISTTTVDTHRKHLLEKLKAGNTAILIKTAVQLDLI | -0.223
22 | HMQVPWYQRLKEKRLEYGVSQNKLATHIGISRQYMSEIETGKVTPSDSLQATLFDILEQFNPDA | -0.74
23 | HMQVRVERSRDKVVISGVNYYIHPVRKGETVYSIARAYGITTQDLVRENPSAAEGLKEGQSIRIPERLVD | 0.22
24 | HMQVSDEGPIKAILQEVLDKSPTQLADYASGKVKLRQYFFGEAMKALKGKANPQVINKLLDEMLPPVAA | -0.178
25 | HMQVSDVTELRTILEKVITENESVATEFKEGKDAAMNFLVGQGMKATRGAADPALLKEIITGIL | -0.358

Row | Sequence | soluble fraction (log2)
26 | HMQVSITGYLGGEKIGLFDDAKFKALAAKQGIAIDYRKAGSPAMMDADRKGMDYLFPSSRAAVEYGNAKGV | 0.144
27 | HMQVTDTGTIEGEIDKVLAANPDRVTEYHDGKEKILGWFVGQVMQTTKGKANPQMVNQLFLEKLK | -0.00465
28 | HMQVTPQVLRLLDVLGDKELSLRQIAEALGLSDRKNIMRNYVVPALDSGRVVRTVPNKPNSRFQKYRK | 0.0808
29 | HMQYDALVLNLLQEKNLTSESLKDAQRAFAKSHNLSTLPSKSQILQAYFQLLEQGKIEKNPDFELLL | 0.0152
30 | HMQYFDIETEIQKFIKSENNLSDFDKETLQSFLYQLSKGSPEENTAKKVVDILNKFLPLTTAIINMIKALT | -0.381
31 | HMQYYITKIANYDQVSPNLLVRTAEGQYMVKTNADILDTDVTKLTEEEIRKDWGYLFENGFSELV | -0.681
32 | HMRAAEPTTDAQRDRRRRIVLTAMTMLQERGYDEIQMRDVAQQAGVALGTLYRYFPSKEQLFAHVLVE | -0.68
33 | HMRAAFEHLTIGQTVSGLVKSQARGVSLVEIEGQTVAMRLPQPVAVGDTLRLRFAGHMPQPVFLLDT | -0.0299
34 | HMRADYVGGLDPAGDNFLALRTGPGSGYAMILPMGPGTFVTVLRRNGKWLLVELEDGTRGWAYGSYILG | -1.16
35 | HMRAGALTTLTERERNVFDLVVTGHSNPEIARQLSIADVTVKTHVGHILSKLGVRDRVHLVIWAHRQGLAD | 0.0561
36 | HMRAMWENLFFQYKEGFLPEEYYKQGIATGIRLAGPKFVEMNIPMQKEFEDEVHRLLAEHEKSVK | -0.795
37 | HMRASVTYVVQVNGKLRGKLEVAPDIDPEELKKLALEVENVKHSLQGWTVKKVIVIPGKMVSIAAGK | -0.296
38 | HMRAVEGKRLKRLLRTNLIAIERDQILQYPLRKRPLAIVTRAVRATNPDAVIVNDAGDDVFARALDVLLAS | -1.23
39 | HMRDAKSQLQEALQKSGRLPEYELVSVEGPPHAPVFTYRVRIDGAVVGEGQGASKQAAQQAAAQSALKSG | 0.22
40 | HMRDDAIQQGREIVERELHRLDLAYTTLTDVLAKLEYEKLDDLYAAVGFGIRSPHSVAAAALQVERDKA | -1.19
41 | HMRDGHEQLQGVLSAIKFHQANFLIGVLDDGTTVKGNMLSPQVGLEYTFRGRRERHPRWGEQFAFMDYRV | -1.82
42 | HMRDIGKNIRYYREKKGYSQEQLAQLLFVTRQTVSNYETSRSRPDVETLVKLAGLLDIDVTDLIYGPR | 0.0792
43 | HMRDKSITFSEFVKLLDEGQIQKVTLTGNEILGTQKSGDKFRTYAPPQYEGLGNKLVERSVEVTAKE | 0.188
44 | HMRDLVTYVVQVNGKLRGKLEVSPSTDDNSLKTMALELENVQRALEGLSVKKVIVIPGKMVSIAAG | -0.355
45 | HMRDVVVVPDLSGLTQMEALSKLDAESLNIGEINYGVSEMPEGVIFKQDPVYGTELMKGDTVDIFISGR | -0.709
46 | HMRDYKTHLQEVLQSKGEVNIWYKLIDEKGPDHNKKFVMQVGIDSKILGFGEGKSKKEAEQVAARKALDNI | -0.317
47 | HMREGIQLGDPVRVIRDPLFGKIGAVSGLPSELRAIPTESEVRVLEVRFPDGTTTVVPRANIEVIEG | -0.229
48 | HMREIEVNYAAGDSVRVIDGPLAGFIGVVSSVEPDKNKVNVTVSMFGRETPVELELDQVETLD | -0.669
49 | HMREISSDELHSLFSADQRGDLVINETTRLSIEKLYALHTPEEREAKVNELSGVLPSEAHRQLVHFLDYFD | -1.54
50 | HMREITVEELYELEGIRIVGTIPGISAWVAESGRQMVFLVGQKVKGHDLLEVGESRVVLRKGDSVVNVLL | -1.21

Row | Sequence | soluble fraction (log2)
51 | HMREKPRETFQRIAEKVGQTLRKGPVRVQQMDLLFSESREQVMEVLRAMAESGEIRIQDDTLHWNGHT | 0.193
52 | HMRELPKRPEIRYAAGDRVFHKAFGNGLVKQVAQTAGGARVTVDFGEGKGVKTFAGDAPMIKI | 0.326
53 | HMRELSDFEKLLFTTTLERKMINLAMLLTRSNKADSKDLIQDSYLKAIENQVQFNGNNIDAWVITILKNTF | -0.361
54 | HMRENAARNRNVNLDIGETLRVDAWSPERRARVQYRGAAWDVELAPNAPATVGEFRIVEVRGNVLVVTP | -0.0451
55 | HMREPIPVPSRPIRAGDLVEIPGTNRPAEVTAVKGDRLVLKAGVLSMTVKNDEVRLIEDDERAAM | 0.208
56 | HMREQAHEVAGKLGYPVMVKASAGGGGKGIRIVRTEDELDQAFEAAQSETKAAFGDDQMYMEKVI | -0.176
57 | HMRESDQSTVELSLERTIQEALMVNPRTSSVEEFSFEWGTGRVKVSFIVYSVDGEPFTVDSIIE | -1.19
58 | HMREVEAPRDLLAALGERPGALDAWKALSFTHQREYVEAIEDARKPETRERRIANAVKMVAERS | 0.111
59 | HMREVPHGEYEVKIEKLELVESKAGDPMVTVWFKVLAGDYKGSMIFMNQVITKGFQIHIMNEFLR | -1.1
60 | HMREYEKAVDYVRRMISSGSLNVGDRLPTERELSLELDISRNSTREAMRMLENMGIIVSRHGSGNYISGN | -0.222
61 | HMRFDADELQKAYDLFDADENTPFKTIKQAYYALARRHHPDKNGDQEYFKVINNAFQLIQEHRRRRDN | -0.412
62 | HMRFGNHHVYRTLMVLSDQKRKGRKQIADAVGIGEGSMRTIIEYLRGLDMIDIRQTGVKITRHGNAFL | 0.138
63 | HMRGAARRDRAVGERAVSKDTILDATRALLRKGSALEIRAIDIAEESGLSRQTVFQYYPVIRLIFFELSD | 0.155
64 | HMRGETSYANDIIKRLKQANLIVVEGTLYPLLNRLKKDGLLHYEWRESQQGPPRKYYGLTEEGEA | 0.0328
65 | HMRGFGEVGQLPSGRYRARYTGPDGGRHSAPITFVARIDAEGWLVDQERMISRGEWEPPARQ | -0.384
66 | HMRGFGYVRRLPSKRYQASYAGPDLQRHVAPTTFTTKADAESWLGAERKVVESGSWRPPAVREAEARLS | 0.412
67 | HMRGLIEPLSQRELEVLMLMARGQSNAHIADQLNISENTIKWHGRNIFGKLGVSNRTEAVITSQEMGMLAT | -0.711
68 | HMRGRFGNAAPARNLGDHPQGGAINVKAGRYGPYVSWGKVNATLPKDSDPEKVTLEEAVALIAAKQSGQG | 0.218
69 | HMRGVDRPLTLPRHWRRNAGRLVKVTLANGSAVTGRVLDPGEERVTLEVSGERHEVAYADVKKALVQVEF | -0.32
70 | HMRHLSVPNRQVEGALDHIRSQGWLAEGMRVFASEDGSARLIPLGPGAPLEMLEPLAKFDVISHEGKPY | -0.771
71 | HMRHSLAAALTELRRLAALDLGDFFRFEYVSHTDSLGGKQQAYTEGIRVSFGVYLGVNKKDRLNVDPVV | -2.38
72 | HMRHTRQRQAVLDALVRSGQALSPQDLLGQAKSAVPSLNLSTVYRQIKGLQDAGQIVRVELPGQPPRFEM | -0.0347
73 | HMRIAQYRQIENDLLEQINLGYYKKGDLIPTELELSATYHVSRVTVRKATDNLVAKGILQRVAGVGTFVSR | 0.0958
74 | HMRIATVTPIEEDQASDRVVAVYNDIKSTKQIDFIPNFWKVIAVNPDLLEQVWGQLKTLMHPEEVG | -0.948
75 | HMRIEDTMDYINKIKEKLKNNGGVITSKEFTRSNIPTIYLTRMVETGELIRIDRGIYINSSG | -0.462
